The data set is described as follows: protein stability index of a GFP-peptide fusion (yeast GPS) (PSI 1-4); higher = more stable; sorted into four equal gates, so the index is relative within each strain. The essentials: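 Peptides tiling yeast proteins in 17-residue segments were fused downstream of GFP, with Cherry expressed from the same plasmid. As a pooled library in yeast, mid-log cultures grown in leucine-free medium were sorted into four equal gates by GFP/Cherry fluorescence ratio. Gate plasmids were PCR-amplified and Illumina-sequenced, and barcodes linked reads to strains. Each peptide received a protein stability index equal to the sum of each gate's read frequency times its gate number.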

± gives the uncertainty stated by the source.

Regarding FLFHAISGREGLVDTAV [RPO31], the protein stability index is, setting by setting: (pdr5∆) 2.89 ± 0.28; (ubr1∆) 2.55 ± 0.13.
As for TVAHIQYDFKAVLEEND [RPN14], the protein stability index is, setting by setting: (doa10∆) 1.95 ± 0.12; (pdr5∆) 2.72 ± 0.2; (san1∆) 2.26 ± 0.11; (ubr1∆) 2.28 ± 0.24.
The like results for GSRMVRELFVMAREHAP [RPT6] were, in that order, 1.82 ± 0.074, 1.68 ± 0.073, 1.09 ± 0.27 and 1.54 ± 0.079.
With LIESLNTIRQNVTSSGD [YML103C/NUP188], the protein stability index (doa10∆) came out at 1.13 ± 0.064, the protein stability index (pdr5∆) was 1.27 ± 0.096, the protein stability index (san1∆) amounted to 1.17 ± 0.23 and the protein stability index (ubr1∆) came to 1.21 ± 0.081.
The like results for GLFGANSNSNSGSLFGS [YGL172W/NUP49] were, in that order, 1.31 ± 0.13, 1.7 ± 0.14, 1.05 ± 0.25 and 1.41 ± 0.21.
Turning to ITSFGFGQKGGQAIVVH [FAS2], the protein stability index reads like this: (doa10∆) 1.28 ± 0.074; (pdr5∆) 1.44 ± 0.036; (san1∆) 1.52 ± 0.088; (ubr1∆) 1.69 ± 0.046.
The like results for FHSEPDRDENWIHVSCL [LIN1] were, in that order, 3.16 ± 0.075, 3.27 ± 0.054, 3.07 ± 0.045 and 3.13 ± 0.039.
The like results for GAHKFLDTYLPEDLNSL [SIR2] were, in that order, 1.85 ± 0.071, 1.88 ± 0.076, 1.56 ± 0.13 and 1.81 ± 0.064.
For EIVDTYQEDIFVSESPS [ISW2] the same measures were 2.83 ± 0.093, 2.8 ± 0.11, 3.35 ± 0.092 and 2.6 ± 0.07.
YWKLWIDEPFNLDFDPR [FAS1]: the protein stability index by setting is: (doa10∆) 3.52 ± 0.12; (pdr5∆) 2.84 ± 0.13; (ubr1∆) 2.27 ± 0.15.
MKPSDNISTNTNIHEPQ [SSN2] came in with a protein stability index (doa10∆) of 3.19 ± 0.042, a protein stability index (pdr5∆) of 3.08 ± 0.051, a protein stability index (san1∆) of 3.1 ± 0.042 and a protein stability index (ubr1∆) of 3.06 ± 0.052.
For THAQRTGLSQIPNRRFT [PRP8] the same measures were 2.8 ± 0.048, 2.62 ± 0.047, 2.83 ± 0.048 and 2.88 ± 0.043.
Turning to PSRKDCMEVASAFMKFS [BRR2], the protein stability index reads like this: (doa10∆) 2.4 ± 0.054; (pdr5∆) 2.78 ± 0.047; (san1∆) 2.83 ± 0.06; (ubr1∆) 2.68 ± 0.055.
For RMLSFEDISKATHLPKD [RPN9] the same measures were 2.95 ± 0.091, 3.08 ± 0.08, 3.15 ± 0.096 and 3.02 ± 0.055.
The like results for EETDEVSSESSDEAIIP [SIR3] were, in that order, 2.93 ± 0.068, 2.52 ± 0.056, 2.73 ± 0.065 and 2.82 ± 0.043.
FASLRVLPDADVKLLHS [YJL039C/NUP192]: the protein stability index came to 2.11 ± 0.1 (pdr5∆), 1.54 ± 0.2 (san1∆) and 2.14 ± 0.11 (ubr1∆).
FDTVSNKLFTEPIKLEP [YMR129W/POM152]: the protein stability index stood at 2.58 ± 0.046 (doa10∆), 2.7 ± 0.065 (pdr5∆), 2.64 ± 0.057 (san1∆) and 2.91 ± 0.036 (ubr1∆).
The like results for STSKFESQYPIVTEQPS [SWP82] were, in that order, 2.41 ± 0.041, 2.58 ± 0.046, 2.41 ± 0.054 and 2.5 ± 0.04.
The like results for GCVSYSPAALKQLASLK [YMR153W/NUP53] were, in that order, 1.7 ± 0.066, 2.22 ± 0.07, 2.08 ± 0.12 and 2.62 ± 0.078.
The like results for EEQEEEPDREKIKLLTQ [RPC19] were, in that order, 2.93 ± 0.25, 3.24 ± 0.11, 2.52 ± 0.15 and 2.65 ± 0.23.
As to GEIDFIKNIGKSLKNNF [YML103C/NUP188], the protein stability index is, setting by setting: (doa10∆) 2.59 ± 0.21; (pdr5∆) 2.57 ± 0.18; (san1∆) 2.17 ± 0.15.
As to LTNDTFEKKLSIIKAKL [YML103C/NUP188], the protein stability index (doa10∆) was 2.8 ± 0.11, the protein stability index (pdr5∆) came out at 2.99 ± 0.23, the protein stability index (san1∆) turned out to be 2.43 ± 0.21 and the protein stability index (ubr1∆) came to 3.3 ± 0.19.
For LKEYQSKIIVFPRDGKA [RPL13B] the same measures were 2.95 ± 0.082, 3.17 ± 0.072, 3.22 ± 0.048 and 3.17 ± 0.054.
For LFAFNGVARNFHFAIEQ [SIN4] the same measures were 3.01 ± 0.14, 2.8 ± 0.079, 2.55 ± 0.069 and 3.06 ± 0.064.
For the setting “doa10∆”, YPEVVTPYNIDRLTQLV [RPO21] showed a protein stability index of 2.56 ± 0.2.

These data come from the supplement of paper PMC9732359.
